Legend:
[1] = activity (detoxification) assay of the purified his-tagged enzyme with ergotamine; assay type: biochemical; settings: FIG. 1; 50 mM sodium phosphate buffer pH 7.0, 25° C.; enzyme 0.079 μg/ml, ergotamine 5 mg/kg
Procedure: (§1) The gene with the sequence ID No. 2, which codes for an α/β-hydrolase comprising a catalytic triad of S94-D234-H270, was cloned into the expression vector pET28a(+) by applying standard methods, transformed and expressed in E. coli. Following the expression in E. coli BL21(DE3), the his-tagged enzyme was purified by affinity chromatography. The enzyme concentration was determined using a Pierce BSA Protein Assay Kit, and the enzyme was used in activity assays. The assays were carried out in 50 mM sodium phosphate buffer (pH 7.0) at 25° C.
In the context of the detoxification assays, enzyme concentrations of 0.079 μg/ml and ergotamine concentrations of 5 mg/kg were used.
The samples were analyzed using HPLC-FLD or HPLC-MS/MS, each by analytically determining the respective concentration of the sum of the respective epimers. Simultaneously with the determination of the ergopeptine concentration during the enzymatic reaction, the formation of the ergo hydroxy acid (metabolite 1) and of the ergoproline cyclodipeptide (metabolite 2) was observed. During the continued reaction course, the conversion of metabolite 1 to ergine was detected.

[2] = assay for reacting the six ergopeptines and their isomeric forms; assay type: biochemical; settings: 1.58 μg/ml enzyme, concentrations equimolar to 10 mg/kg ergotamine; pH 7.0, 25° C.; FIG. 2
Procedure: as §1
A further assay for reacting the six ergopeptines, namely ergotamine, ergovaline, ergocomine, ergocristine, ergocryptine or ergosine, and their respective isomeric forms, namely ergotaminine, ergovalinine, ergocominine, ergocristinine, ergocryptinine and ergosinine, used 1.58 μg/ml of the enzyme with sequence ID No. 1 and 10 mg/kg ergotamine, or the equimolar (summation) concentrations of the remaining ergopeptines or their epimers.
The samples were analyzed using HPLC-FLD or HPLC-MS/MS, each by analytically determining the respective concentration of the sum of the respective epimers. […] During the continued reaction course, the conversion of metabolite 1 to ergine was detected.

[3] = temperature range of the activity; assay type: biochemical; settings: 0.1 μg/ml enzyme, 5 mg/kg ergotamine, Teorell-Stenhagen universal buffer pH 9.0
[4] = temperature stability of the enzyme; assay type: biochemical
Procedure: In order to determine the temperature stability, the enzyme was incubated for 1 h at varying temperatures ranging from 10° C. to 60° C. After this, the enzyme solutions were incubated at concentrations of 0.1 μg/ml in Teorell-Stenhagen universal buffer (pH 7.0) with 0.1 mg/ml BSA and 5 mg/kg ergotamine at 25° C.

[5] = pH stability of the enzyme; assay type: biochemical; settings: 1 h at 25° C. at pH 2 to pH 12; then assay at pH 7.0, 25° C.
Procedure: In order to determine the pH stability, the enzyme was incubated for 1 h at 25° C. at varying pH values ranging from pH 2 to pH 12. After this, the enzyme solutions in concentrations of 0.1 μg/ml were incubated with 0.1 mg/ml BSA and 5 mg/kg ergotamine in Teorell-Stenhagen universal buffer (pH 7.0) at 25° C.

[6] = degradation assay in the in-vitro rumen model; settings: 1 μg/ml enzyme, 5 mg/kg ergotamine, rumen juice diluted 1:1, 39° C., HPLC/ESI-MS/MS

B1: enzyme with the sequence ID No. 1: α/β-hydrolase with catalytic triad S94-D234-H270, coded by gene sequence ID No. 2, cleaving ergopeptines in the cyclol ring (protein, listed as Rhodococcus erythropolis)
chain: MPLVVLSDGTRIHVETSGNGVPALVPCVGSSVPFERTFGEELKTDIQYNFVEVRGTSRSDGEPSEVASLDRISDDLEEVRQLLGLDKVIALGQSRNGMMAAHYAQKYPNSVLHLVTIGTPASLSMIKNEEYWNAFADDERKRLRAENDAAMEREGLLDLDNLNTAEKIVRLFDLEGAVYFYDPTTLMNDWWDASLLSRTFEVVMASNMGWADFDLVQTLQNSDVPAFVTFGKYDFMVSPLPKPGNPVDGKAGLFEDIPGVRVEVFEKSGHFPYWEQEQEFARRYRDWVATLPESAVRAAEAMTPNGIRQ
Question: What does the source list for B1?
Answer: time to almost complete degradation of ergotamine to ergine [1]: ≤ 4 h; reaction courses of all other ergopeptines and their isomeric forms relative to ergotamine [2]: comparable; temperature optimum of activity, based on the starting speed [3]: 35 °C; temperature up to which the enzyme is stable ([4]; 1 h preincubation at 10° C. to 60° C., then 0.1 μg/ml enzyme, pH 7.0, 0.1 mg/ml BSA, 5 mg/kg ergotamine, 25° C.): ≤ 30 °C; activity after incubation at 40° C. ([4]; 1 h preincubation at 40° C., then assay at pH 7.0, 25° C.): still displaying some activity; activity outside the pH 6 to pH 9 range after preincubation [5]: strongly decreasing activity; conversion of ergotamine in the rumen model [6]: completely converted into ergine and lysergic acid

Reference: patent US9586990B2, “Enzymes for transforming ergopeptines and method therefor” (Erber Aktiengesellschaft, priority 2012, dated 2017)
